The values that follow come from the Human Domainome abundance scans (Beltran et al. 2025).

± gives the uncertainty stated by the source.

B1: KAT8 regulatory NSL complex subunit 2, residues 28 to 91; numbered along this chain, Q9H9L4 (parent)
chain: CAFTHRPCSHPRLEGQEFCIKHILEDKNAPFKQCSYISTKNGKRCPNAAPKPEKKDGVSFCAEH

The variants in this data set derive from B1. As to the kind of experiment: abundance fitness (aPCA) (normalised: wild type 0, dead -1); higher = more abundant; growth selection in yeast, the domain comes from the species named. The conditions noted are these: Homo sapiens.
Consider Y36P, for which the abundance fitness was -0.298 ± 0.087.
On to P7G, for which the abundance fitness is -0.063 ± 0.091.
As to P7L, the abundance fitness was -0.101 ± 0.046.
For the variant P7M, the abundance fitness is -0.05 ± 0.067.
As for P7F, the abundance fitness was -0.121 ± 0.12.
The figure for P7Q is -0.072 ± 0.062; for P30D it is -0.155 ± 0.075; for P30K it is -0.156 ± 0.1.
Regarding P30I, the abundance fitness is -0.162 ± 0.13.
Turning to P30L, the abundance fitness was -0.188 ± 0.046.
With P30C, the abundance fitness was -0.275 ± 0.065.
Regarding T39F, the abundance fitness was -0.105 ± 0.075.
In the case of T39R, the abundance fitness is -0.105 ± 0.14.
Consider T39W, for which the abundance fitness was -0.57 ± 0.15.
Regarding T39D, the abundance fitness was -0.101 ± 0.075.
As to T39N, the abundance fitness is -0.049 ± 0.061.
On to T39S, for which the abundance fitness is -0.112 ± 0.052.
With N28W, the abundance fitness is -0.312 ± 0.068.
For the variant N28R, the abundance fitness is -0.049 ± 0.041.
For N28F, the abundance fitness is -0.083 ± 0.11.
For N28M, the abundance fitness was -0.107 ± 0.079.
N28E: the abundance fitness was -0.07 ± 0.084.
The figure for N28S is -0.006 ± 0.057; for H64D it is -0.324 ± 0.11.
The figure for H64M is -0.333 ± 0.22; for H64A it is -0.582 ± 0.23.
As for H64Y, the figure is -0.781 ± 0.12.
Regarding H64L, the abundance fitness is -0.602 ± 0.081.
For the variant H64I, the abundance fitness was -1.02 ± 0.32.
C61M: the abundance fitness was -0.573 ± 0.067.
Turning to C61F, the abundance fitness is -0.722 ± 0.11.
The figure for C61W is -0.667 ± 0.058.
As for C61N, the abundance fitness was -0.449 ± 0.079.
The figure for Q16L is -0.054 ± 0.053.
Take Q16W: the abundance fitness is -0.226 ± 0.058.
The figure for Q16K is -0.143 ± 0.1; for I20E it is -0.129 ± 0.07.
With I20F, the abundance fitness is -0.115 ± 0.074.
On to I20H, for which the abundance fitness was -0.179 ± 0.15.
Regarding I20G, the abundance fitness is -0.104 ± 0.048.
On to I20Y, for which the abundance fitness is -0.151 ± 0.078.
Consider I20C, for which the abundance fitness was -0.14 ± 0.064.
The figure for I20A is -0.048 ± 0.063; for I20D it is -0.208 ± 0.13.
With K32N, the abundance fitness is -0.073 ± 0.091.
Turning to K32H, the abundance fitness was -0.185 ± 0.085.
Consider K32I, for which the abundance fitness is -0.135 ± 0.085.
For the variant K32D, the abundance fitness was -0.136 ± 0.11.
The figure for K32R is -0.041 ± 0.063; for K32Y it is -0.194 ± 0.083.
On to D26V, for which the abundance fitness is -0.16 ± 0.068.
With D26E, the abundance fitness is -0.157 ± 0.098.
On to D26G, for which the abundance fitness is -0.197 ± 0.064.
Regarding D26R, the abundance fitness is -0.175 ± 0.046.
Consider D26A, for which the abundance fitness was -0.084 ± 0.063.
The figure for D26C is -0.097 ± 0.08; for L24I it is -0.2 ± 0.078; for L24Y it is -0.168 ± 0.085.
L24R: the abundance fitness is -0.164 ± 0.054.
The figure for L24E is -0.234 ± 0.075; for L24P it is -0.134 ± 0.1; for C45I it is -0.594 ± 0.086.
As for C45H, the abundance fitness is -0.581 ± 0.12.
For C45W, the abundance fitness is -0.79 ± 0.056.
On to C45Y, for which the abundance fitness is -0.671 ± 0.1.
Consider C45M, for which the abundance fitness is -0.438 ± 0.061.
Regarding C45S, the abundance fitness was -0.378 ± 0.049.
For the variant C45G, the abundance fitness is -0.427 ± 0.057.
In the case of A62K, the abundance fitness stood at 0.095 ± 0.075.
A62P: the abundance fitness was -0.065 ± 0.073.
As to A62M, the abundance fitness is -0.103 ± 0.051.
The figure for A62L is -0.087 ± 0.035; for A62H it is -0.081 ± 0.088.
With A62C, the abundance fitness is -0.018 ± 0.057.
For A62S, the abundance fitness was -0.055 ± 0.044.
P11N: the abundance fitness was -0.282 ± 0.1.
Turning to P11K, the abundance fitness is -0.067 ± 0.085.
Take P11V: the abundance fitness is -0.197 ± 0.053.
On to P11L, for which the abundance fitness is -0.18 ± 0.055.
On to P50F, for which the abundance fitness was -0.135 ± 0.062.
On to P50G, for which the abundance fitness is -0.211 ± 0.066.
Consider P50Q, for which the abundance fitness is -0.265 ± 0.2.
For the variant P50S, the abundance fitness is -0.104 ± 0.054.
Consider P50C, for which the abundance fitness is -0.1 ± 0.074.
In the case of P50I, the abundance fitness was -0.184 ± 0.078.
With Q33T, the abundance fitness stood at 0.017 ± 0.099.
As for Q33A, the abundance fitness stood at 0.011 ± 0.061.
As to Q33C, the abundance fitness is -0.255 ± 0.14.
Regarding Q33Y, the abundance fitness was -0.071 ± 0.1.
For the variant Q33R, the abundance fitness was -0.081 ± 0.053.
On to Q33I, for which the abundance fitness was -0.124 ± 0.087.
Q33M: the abundance fitness is -0.062 ± 0.056.
As for Q33F, the figure is -0.217 ± 0.14; as for S9K, -0.343 ± 0.068.
As for S9Q, the abundance fitness is -0.115 ± 0.062.
With S9D, the abundance fitness is -0.121 ± 0.073.
The figure for S9C is -0.123 ± 0.08; for E25K it is -0.23 ± 0.071.
On to E25P, for which the abundance fitness was -0.356 ± 0.073.
E25M: the abundance fitness is -0.092 ± 0.059.
As for E25H, the abundance fitness was found to be 0.053 ± 0.17.
For E25S, the abundance fitness is -0.111 ± 0.053.
The figure for E25I is -0.171 ± 0.089; for E25L it is -0.098 ± 0.044; for E25T it is -0.127 ± 0.063.
As for H5E, the abundance fitness was determined as 0.017 ± 0.088.
H5Y: the abundance fitness is -0.151 ± 0.093.
As for H5K, the abundance fitness is -0.083 ± 0.14.
As to H5I, the abundance fitness is -0.084 ± 0.1.
For the variant H5P, the abundance fitness is -0.146 ± 0.095.
Turning to H5S, the abundance fitness is -0.144 ± 0.068.
H5Q: the abundance fitness worked out at 0.011 ± 0.063.
As for H5R, the abundance fitness is -0.01 ± 0.058.
On to H5A, for which the abundance fitness is -0.068 ± 0.045.
Consider H5G, for which the abundance fitness was -0.017 ± 0.056.
For the variant H5M, the abundance fitness is -0.012 ± 0.081.
Take H5L: the abundance fitness is -0.068 ± 0.054.
As for A48H, the abundance fitness is -0.336 ± 0.19.
Take A48F: the abundance fitness is -0.204 ± 0.075.
Take A48E: the abundance fitness was -0.28 ± 0.074.
As for A48P, the abundance fitness is -0.079 ± 0.054.
For the variant A48Y, the abundance fitness is -0.167 ± 0.086.
With A48R, the abundance fitness was -0.166 ± 0.045.
Consider R44D, for which the abundance fitness is -0.102 ± 0.091.
As for R44K, the figure is -0.071 ± 0.06; as for R44N, -0.014 ± 0.13.
Turning to R44H, the abundance fitness is -0.051 ± 0.12.
Consider K27E, for which the abundance fitness was -0.079 ± 0.074.
The figure for K27Y is -0.202 ± 0.067; for K27M it is -0.269 ± 0.074; for K27N it is -0.044 ± 0.097.
For the variant K27G, the abundance fitness is -0.191 ± 0.068.
For C19E, the abundance fitness is -1 ± 0.08.
Turning to C19K, the abundance fitness is -0.572 ± 0.091.
Regarding C19N, the abundance fitness is -1.27 ± 0.12.
Consider C19M, for which the abundance fitness is -1.08 ± 0.091.
As to A49Q, the abundance fitness was -0.3 ± 0.066.
On to A49N, for which the abundance fitness was -0.143 ± 0.17.
As for A49W, the figure is -0.315 ± 0.067; as for A49I, -0.076 ± 0.091; as for A49P, -0.219 ± 0.078.
Consider A49V, for which the abundance fitness came out at 0.076 ± 0.078.
For the variant R12Q, the abundance fitness is -0.561 ± 0.25.
For R12F, the abundance fitness is -0.77 ± 0.066.
Turning to R12I, the abundance fitness is -0.234 ± 0.096.
Take R12K: the abundance fitness is -0.325 ± 0.2.
Turning to R12H, the abundance fitness is -0.308 ± 0.066.
As for R12V, the abundance fitness was -0.066 ± 0.08.
As for R12P, the abundance fitness was -0.147 ± 0.077.
R12E: the abundance fitness is -0.674 ± 0.13.
Turning to R12T, the abundance fitness was -0.103 ± 0.067.
On to T4W, for which the abundance fitness was -0.388 ± 0.1.
The figure for T4M is -0.788 ± 0.072; for T4E it is -0.305 ± 0.076; for T4K it is -0.378 ± 0.084.
As to T4D, the abundance fitness was -0.163 ± 0.1.
Turning to T4A, the abundance fitness is -0.404 ± 0.064.
For the variant H22F, the abundance fitness was -1.81 ± 0.27.
H22G: the abundance fitness was -0.789 ± 0.053.
The figure for H22T is -0.877 ± 0.086; for S59T it is -0.036 ± 0.058; for S59V it is -0.095 ± 0.091.
For S59R, the abundance fitness is -0.12 ± 0.09.
Turning to S59E, the abundance fitness was -0.243 ± 0.14.
Regarding S59I, the abundance fitness was -0.006 ± 0.12.
With S59Y, the abundance fitness is -0.048 ± 0.081.
In the case of S59C, the abundance fitness was -0.089 ± 0.14.
